# Data as given in patent US20070224188A1.
# Molecular target: biotin-labeled soluble FcRn
# Experiment: FcRn ELISA pH 6.0
Substance,FcRn6.0 (% of wild type),FcRn pH6.0 (% of wild type)
anti-CD20 IgG1 247L251F330R332E (antibody),50,
anti-CD20 IgG1 247L251F376I (antibody),61,
anti-CD20 IgG1 251F332E376I (antibody),68,
anti-CD20 IgG1 256P314Y440Y (antibody),79,
anti-CD20 IgG1 256P332E440Y (antibody),117,
anti-CD20 IgG1 256P430Q (antibody),150,
anti-CD20 IgG1 256P434H (antibody),342,
anti-CD20 IgG1 256P440Y (antibody),122,
anti-CD20 IgG1 257I430Q (antibody),304,
anti-CD20 IgG1 258D283R (antibody),411,
anti-CD20 IgG1 258D307E (antibody),237,
anti-CD20 IgG1 272R283R (antibody),439,
anti-CD20 IgG1 279D307E (antibody),522,
anti-CD20 IgG1 286F311I (antibody),412,
anti-CD20 IgG1 307E376V (antibody),480,
anti-CD20 IgG1 311I376V (antibody),414,
anti-CD20 IgG1 330K332D (antibody),88,
anti-CD20 IgG1 330R332E (antibody),94,

Substance,FcRn6.0 (% of wild type),FcRn pH6.0 (% of wild type)
anti-CD20 IgG1 332E376I (antibody),102,
anti-CD20 IgG1 332E440Y (antibody),94,
anti-CD20 IgG1 343R345D (antibody),143,
anti-CD20 IgG1 376V430R (antibody),188,
anti-CD20 IgG1 A327T (antibody),,54
anti-CD20 IgG1 A330R (antibody),,121
anti-CD20 IgG1 A339D (antibody),,80
anti-CD20 IgG1 A339E (antibody),,75
anti-CD20 IgG1 A339G (antibody),,67
anti-CD20 IgG1 A339R (antibody),,82
anti-CD20 IgG1 A339W (antibody),,156
anti-CD20 IgG1 A378N (antibody),,180
anti-CD20 IgG1 D249E (antibody),,78
anti-CD20 IgG1 D249M (antibody),,50
anti-CD20 IgG1 D249Y (antibody),,41
anti-CD20 IgG1 D265H (antibody),,79
anti-CD20 IgG1 D265S (antibody),,66

# Continued, values first:
FcRn6.0 (% of wild type),FcRn pH6.0 (% of wild type),Substance
74,,anti-CD20 IgG1 247L332E376I (antibody)
78,,anti-CD20 IgG1 247L332E (antibody)
72,,anti-CD20 IgG1 251F332E (antibody)
66,,anti-CD20 IgG1 251F376I (antibody)
268,,anti-CD20 IgG1 256P311I (antibody)
86,,anti-CD20 IgG1 256P314Y332E440Y (antibody)
121,,anti-CD20 IgG1 256P332E (antibody)
553,,anti-CD20 IgG1 257I311I434H (antibody)
409,,anti-CD20 IgG1 257I311I (antibody)
472,,anti-CD20 IgG1 257I434H (antibody)
383,,anti-CD20 IgG1 258D272R (antibody)
445,,anti-CD20 IgG1 258D286F (antibody)
522,,anti-CD20 IgG1 258D311I (antibody)
415,,anti-CD20 IgG1 258D376V (antibody)
92,,anti-CD20 IgG1 268D332E (antibody)
88,,anti-CD20 IgG1 268E332E (antibody)
156,,anti-CD20 IgG1 272R279L (antibody)
338,,anti-CD20 IgG1 272R286F (antibody)
396,,anti-CD20 IgG1 272R311I (antibody)
369,,anti-CD20 IgG1 272R376V (antibody)
400,,anti-CD20 IgG1 283R307E (antibody)
531,,anti-CD20 IgG1 283R311I (antibody)
475,,anti-CD20 IgG1 283R376V (antibody)
431,,anti-CD20 IgG1 286F307E (antibody)
349,,anti-CD20 IgG1 286F376V (antibody)
82,,anti-CD20 IgG1 314Y332E440Y (antibody)
78,,anti-CD20 IgG1 314Y440Y (antibody)

FcRn6.0 (% of wild type),FcRn pH6.0 (% of wild type),Substance
94,,anti-CD20 IgG1 330K332E (antibody)
88,,anti-CD20 IgG1 330R332D (antibody)
132,,anti-CD20 IgG1 332E376V (antibody)
212,,anti-CD20 IgG1 376V430Q (antibody)
382,,anti-CD20 IgG1 376V434H (antibody)
,108,anti-CD20 IgG1 A330K (antibody)
,120,anti-CD20 IgG1 A339F (antibody)
,107,anti-CD20 IgG1 A339H (antibody)
,80,anti-CD20 IgG1 A339I (antibody)
,83,anti-CD20 IgG1 A339K (antibody)
,83,anti-CD20 IgG1 A339L (antibody)
,111,anti-CD20 IgG1 A339M (antibody)
,146,anti-CD20 IgG1 A339N (antibody)
,102,anti-CD20 IgG1 A339Q (antibody)
,95,anti-CD20 IgG1 A339S (antibody)
,138,anti-CD20 IgG1 A339T (antibody)
,92,anti-CD20 IgG1 A339Y (antibody)
,163,anti-CD20 IgG1 A378D (antibody)
,151,anti-CD20 IgG1 A431H (antibody)
,176,anti-CD20 IgG1 A431K (antibody)
,29,anti-CD20 IgG1 A431P (antibody)
,15,anti-CD20 IgG1 D249L (antibody)
,112,anti-CD20 IgG1 D249N (antibody)
,138,anti-CD20 IgG1 D249P (antibody)
,107,anti-CD20 IgG1 D265K (antibody)
,33,anti-CD20 IgG1 D265Y (antibody)
